Numbering of substitutions follows the chain as printed. Read-outs that look alike come from different tables or passages of the source.
What was measured:
[1] = molecular target: T1, SARS-CoV-2 Spike receptor binding domain (RBD, amino acids 330-532) (SARS-CoV-2, UniProt P0DTC2 330-532); experiment: phage ELISA on biotinylated RBD captured on neutravidin, anti-M13-HRP
T1 construct: range 330-532

RBD-Fc [2] = molecular target: T2, RBD-Fc (SARS-CoV-2; human, UniProt P0DTC2 330-532)
RBD-Fc [3] = molecular target: T2, RBD-Fc; remark: listed apart in the source
[4] = molecular target: T1, SARS-CoV-2 Spike receptor binding …; experiment: ITC, RBD in the cell, H11-H4 in the syringe
[5] = molecular target: T1, SARS-CoV-2 Spike receptor binding …; experiment: ITC, nanobody titrated into RBD, 25 °C, 1:1 stoichiometry
[6] = molecular target: T1, SARS-CoV-2 Spike receptor binding …
RBD-Fc [7] = molecular target: T2, RBD-Fc; experiment: SPR single-cycle kinetics, RBD-Fc on Protein A chip, nanobody as analyte
RBD-Fc [8] = molecular target: T2, RBD-Fc; remark: listed apart in the source
RBD-Fc [9] = molecular target: T2, RBD-Fc; experiment: SPR, single-cycle kinetics, RBD-Fc immobilized, H11-D4 as analyte, run i)
[10] = molecular target: T1, SARS-CoV-2 Spike receptor binding …; remark: listed apart in the source
RBD-Fc [11] = molecular target: T2, RBD-Fc; experiment: SPR, single-cycle kinetics, RBD-Fc immobilized, H11-D4 as analyte, run ii)

B1: NbRBD_B4 (VHH)
VHH: QVQLVESGGGLVQPGGSLRLSCAASGFTFSSYWMYWVRQAPGKGLEWVSVINTGGDTTYYADSVKGRFTISRDNDENTLSLQMNSLKPEDTALYYCARTGVVRGPGDLDAWGQGTQVTVSS
[1]
  ELISA A405: > 1.5

B2: NbRBD_C10 (VHH)
VHH: QVQLVESGGGLVQPGGSLRLSCAASGFAFSSYDMSWVRQAPGKGLEWVSAIDSGGGVTYYADSMKGRFTISRDNAKNTVYLQMNSLKPEDTAVYYCNAVDGLGYLEYDYWGQGTQVTVSS
[1]
  ELISA A405: > 1.5

B3: NbRBD_A7 (VHH)
VHH: QVQLVESGGGLVQPGGSLRLSCAASGFTFDDYAMSWVRQAPGKGLEWVSAISWNGGGTYYAESMKGRFTISRDNAKNTLYLQMNSLKSEDTAVYYCAKDFHRYGSSTLEYDYWGQGTQVTVSS
[1]
  ELISA A405: > 1.5

B4: NbRBD_C7 (VHH)
VHH: QVQLVESGGGLVQPGGSLRLSCAASGFTFSSYDMSWVRQAPGKGLEWVSGISGSDSTTVYSDSVKDRFTISRDNAKNTLYLQMNKLKPEDTALYYCARPLGQYTSWGQGTQVTVSS
[1]
  ELISA A405: > 1.5

B5: NbRBD_F5 (VHH)
VHH: QVQLVESGGGLVQAGGSLRLSCAASGTIFRINAMAWYRQAPGKQRELVAIISNGDSGDSTNYADSVKGRFTISRDSAKNTVYLQMNSLKPEDTAVYYCNVEASWPHKYWGQGTQVTVSS
[1]
  ELISA A405: > 1.5

B6: NbRBD_F9 (VHH)
VHH: QVQLVESGGGLVQPGGSLRVSCAASGFTFSSYFMSWVRQAPGKQRELVATIGDRGNTNYADSVKGRFTISRDNAKNTVYLQMNSLKPEDTAVYYCYSRNRILQHYWGQGTQVTVSS
[1]
  ELISA A405: > 1.5

B7: NbRBD_G9 (VHH)
VHH: QVQLVESGGGLVQPGGSLRLSCAASGFTFYDYHMSWVRQAPGKGLEWVSGIDTGGGRTYAADSVKGRFTISRDNAKNTLYLQMNSLKSEDTALYYCVRDGDARGPDYDYWGQGTMVTVSS
[1]
  ELISA A405: > 1.5

B8: NbRDB_E11 (VHH)
VHH: QVQLVESGGGLVQPGGSLRLSCAASGFTFSNYAMTWVRQAPGKGLEWISDIGSDGRHPAYADSVKGRYTISRDNAKNTLYLQMNSLKPEDTAMYYCLPGWSTVGTFLDAWGQGTQVTVSS
[1]
  ELISA A405: > 1.5

B9: NbRBD_H11 (VHH)
VHH: QVQLVESGGGLMQAGGSLRLSCAVSGRTFSTAAMGWFRQAPGKEREFVAAIRWSGGSAYYADSVKGRFTISRDKAKNTVYLQMNSLKYEDTAVYYCAQTRVTRSLLSDYATWPYDYWGQGTQVTVSS
notes: also called nanobody H11; Nb H11
RBD-Fc [2]
  Kd: 378 nM
[1]
  ELISA A405: > 1.5
RBD-Fc [3]
  Kd: < 1000 nM

B10: NbRBD_H11-H4 (VHH)
VHH: B9 VHH with R100H, V101Y, T102V, R103S, S104Y
notes: also called nanobody H11-H4
[4]
  ΔH: -67 kJmol-1
  ΔS: -80 Jmol-1K-1
[5]
  Kd: 12 nM
[6]
  Kd: 11.8 nM
  ΔH: -69 kJmol-1
  ΔS: -79 Jmol-1K-1
RBD-Fc [7]
  Kd: ~5 nM
RBD-Fc [8]
  Kd: 5.5 nM

B11: NbRBD_H11-D4 (VHH)
VHH: B9 VHH with Q98R, R100E, V101N, T102V
notes: also called nanobody H11-D4
RBD-Fc [9]
  Kd: 9 nM
[5]
  Kd: 39 nM
[10]
  Kd: 39.2 nM
  ΔH: -76.1 kJmol-1
  ΔS: -114 Jmol-1K-1
RBD-Fc [7]
  Kd: ~10 nM
RBD-Fc [11]
  Kd: 10 nM

B12: NbRBD_D1 (VHH)
VHH: QVQLVESGGGLVQPGGSLRLSCAASGFTFSSYGMSWVRQAPGKGLEWVSGINSGGGSTSYADSVKGRFTISRDNAKNTLYLQMNSLKSEDTAVYYCAKDASEDAGRLYWTDYWGQGTQVTVSS
[1]
  ELISA A405: > 1.5

B13: NbRBD_B11 (VHH)
VHH: QVQLVESGGGLVQPGGSLRLSCAASGFTFDDYAMSWVRQAPGKGLEWVSNIYSYISTTHYADSVKGRFTISTDNAKNTLYLQMNSLKPEDTAVYYCAARRLDTTDYKYWGQGTQVTVSS
[1]
  ELISA A405: > 1.5

B14: NbRBD_G11 (VHH)
VHH: QVHLVESGGGLVQPGGSLRLSCAASGFTFDDYGMTWVRQAPGKGLEWVSAVNSGGGTSYADSVKGRFTISRDNAKNTLYLQMNSLKPEDTAVYYCAKRDGSWWGYTTDYWGKGTQVTVSS
[1]
  ELISA A405: > 1.5

B15: NbRBD_G7 (VHH)
VHH: QVQLVESGGGLVQPGGSLRLSCATSGFTFDTYDMSWVRQAPGNGPEWVSAEDSTGNKFYADSVKGRFAISRDNARNTLYLQMNSLTSEDTAVYYCAKGLRSWGAWGQGTQVTVSS
[1]
  ELISA A405: > 1.5
